Experimental data reported in the supplement of paper PMC10126150.
± gives the standard deviation of the averaged measurements.

Tested on: ATP
Assay: switch fluorescence ratio, 500 uM ATP over buffer (Cy3 cluster intensity, sum of 5 cycles each) (fold (ratio)); higher = stronger signal-on switching upon ATP binding; sequences stand for … in TCGTCGGCAGCGTCAGATGTGTATAAGAGACAGTTTTTTTTTTTTTTTTTTTTTTTTT…TC
Conditions: aptamer strand: ATP DNA aptamer (quencher-CACCTGGGGGAGTATTGCGGAGGAAGG + anchor), 100 nM annealed; ATP concentration: 500 uM
How it was run: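 Cy3-labelled switching-strand clusters on a modified Illumina MiSeq flow-cell were annealed to 100 nM quencher-labelled ATP aptamer, imaged in selection buffer, then imaged after 15 min with 500 uM ATP at 22 °C. Five buffer/ATP cycles ran, with NaOH stripping and re-annealing between them. The fluorescence ratio is summed target-cycle over summed buffer-cycle Cy3 intensity per cluster, averaged per switch-domain sequence. Clusters outside 100-1000 RFU were excluded.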
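Also: ATP exposure 15 min at 22 °C before imaging.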

Sequence	switch fluorescence ratio
GTCGTATGAT	0.9993 ± 0.0091
GTCGTGTGGG	0.996 ± 0.0025
GTCGTTTGGA	1.01 ± 0.035
GTCTAGGGGG	1.05 ± 0.089
GTCTATATGG	0.997 ± 0.032
GTCTCAAGTT	1.02 ± 0.011
GTCTCTGGGG	1.08 ± 0.083
GTCTGGGCGG	0.9919 ± 0.0031
GTCTGGGGTG	1.04 ± 0.021
GTCTGGTTGA	1.02 ± 0.033
GTCTGTGGGT	0.972 ± 0.06
GTCTTTAACT	0.982 ± 0.059
GTCTTTTAGG	0.9981 ± 0.0086
GTCTTTTGTA	0.983 ± 0.04
GTCTTTTTTT	0.96 ± 0.045
GTGAAAACCG	1.03 ± 0.062
GTGAAAAGGC	0.9862 ± 0.0032
GTGAAGAAGG	1.13 ± 0.2
GTGACAATTT	0.998 ± 0.069
GTGACAGGTC	0.974 ± 0.038
GTGACGGGGG	1.02 ± 0.029
GTGAGCTGAT	1.023 ± 0.0081
GTGAGCTTGT	1.02 ± 0.013
GTGAGGGAGC	1.12 ± 0.27
GTGAGGGGGA	1 ± 0.033

Sequence	switch fluorescence ratio
GTGAGGGGGC	0.993 ± 0.1
GTGAGGGGTG	0.996 ± 0.032
GTGAGTAATT	1.02 ± 0.078
GTGAGTATCG	0.968 ± 0.0098
GTGAGTGCCT	1.006 ± 0.01
GTGAGTGTAT	0.9682 ± 0.0092
GTGATAACGG	1.008 ± 0.0091
GTGATACCGT	0.99 ± 0.0087
GTGATAGGGA	1 ± 0.013
GTGATAGTGG	0.9385 ± 0.0022
GTGATATAGG	1.03 ± 0.041
GTGATATGAG	1.01 ± 0.036
GTGATGACAT	1 ± 0.013
GTGATGGGTT	0.953 ± 0.014
GTGATGGTT	0.984 ± 0.03
GTGCAACTAC	2.93 ± 0.32
GTGCAAGGCG	0.988 ± 0.032
GTGCAGGGGC	1.04 ± 0.019
GTGCATGGGG	1.02 ± 0.0056
GTGCCGGGTT	1.03 ± 0.066
GTGCGGGGCG	1.02 ± 0.067
GTGCTACGTG	0.966 ± 0.059
GTGCTGCCGG	1.01 ± 0.049
GTGGAAATAG	1.01 ± 0.05
GTGGAAGCCG	1.013 ± 0.0034

Sequence	switch fluorescence ratio
GTGGAAGCTT	1.01 ± 0.041
GTGGACAACG	0.9924 ± 0.0099
GTGGAGAGGG	0.993 ± 0.038
GTGGAGGGTT	1.03 ± 0.04
GTGGATAATG	0.996 ± 0.056
GTGGATATGG	0.995 ± 0.043
GTGGATTCAC	0.98 ± 0.0096
GTGGATTGGT	0.974 ± 0.013
GTGGCCATTA	0.995 ± 0.02
GTGGCCGGGT	1.03 ± 0.0047
GTGGCGGATT	1.02 ± 0.013
GTGGCTAATT	1 ± 0.015
GTGGCTGTTT	1.02 ± 0.02
GTGGGAAAAA	1.01 ± 0.0085
GTGGGAAGGT	0.994 ± 0.038
GTGGGATAAT	1.02 ± 0.021
GTGGGATATA	0.995 ± 0.049
GTGGGATATT	0.9809 ± 0.0056
GTGGGATGTT	1.01 ± 0.015
GTGGGATTAT	1 ± 0.019
GTGGGCAGGT	0.988 ± 0.024
GTGGGCGGTC	0.995 ± 0.057
GTGGGCGTTT	1 ± 0.017
GTGGGGAAAG	0.99 ± 0.034
GTGGGGAAGG	1.02 ± 0.054

Sequence	switch fluorescence ratio
GTGGGGATGG	0.966 ± 0.024
GTGGGGATTG	0.9379 ± 0.0016
GTGGGGCAGT	0.996 ± 0.025
GTGGGGCGGG	0.999 ± 0.02
GTGGGGCTTA	0.994 ± 0.032
GTGGGGGAA	0.994 ± 0.034
GTGGGGGCGT	1 ± 0.026
GTGGGGGGGC	0.989 ± 0.032
GTGGGGGGTA	1 ± 0.031
GTGGGGGGTT	0.993 ± 0.026
GTGGGGGTCT	0.972 ± 0.013
GTGGGGTAGT	0.995 ± 0.018
GTGGGGTATG	0.977 ± 0.032
GTGGGGTTGT	0.973 ± 0.022
GTGGGGTTTG	1.01 ± 0.041
GTGGGTGAC	0.977 ± 0.049
GTGGGTTGTT	0.9719 ± 0.005
GTGGTAAGGG	0.972 ± 0.034
GTGGTAATGG	0.953 ± 0.021
GTGGTAGCAC	1.01 ± 0.025
GTGGTAGGTA	0.998 ± 0.021
GTGGTAGGTT	0.981 ± 0.027
GTGGTATGTG	0.95 ± 0.045
GTGGTCGGGA	1.09 ± 0.15
GTGGTGCTTA	0.996 ± 0.032
